In patent US20240058478A1, “FOLATE RECEPTOR-TARGETED CONJUGATES, COMPOSITIONS, AND DELIVERY TO THE CENTRAL NERVOUS SYSTEM” (PURDUE RESEARCH FOUNDATION, priority 2021, published 2024):

Experiments:
[1] = test system: folate receptor-positive cells; assay: FRES uptake in SCI: NIR imaging of transverse spinal cord sections, conjugate vs unconjugated dye; type: in vivo, Sprague Dawley rats; conditions: for NIR signal in the spinal cords: SCI rats, injected day 7 after injury, imaged day 8, conjugate vs unconjugated NIR dye
Experimental: Adult male Sprague Dawley rats were given a moderate grade SCI. The rats were injected with OTL38 or unconjugated NIR dye on day 7 after injury. On day 8, the spinal cords were removed and imaged for NIR signal.
FIGS. 11A-11B show transverse spinal cord sections of the rostral portions (FIG. 11A) and epicenters (FIG. 11B) of a rat with SCI and injected seven days after injury with OTL38. […] The results are shown in FIG. 11D, which is a bar graph of mean fluorescence intensity vs. rostral portion and epicenter showing OTL38 uptake (students t-test, **p<0.01).

[2] = test system: folate receptor-positive cells; assay: FRES uptake in spinal cord contusion injury (SCI): ex vivo NIR imaging of spinal cords; set-up: species or system Sprague Dawley rats; conditions: SCI rats
Experimental: Adult male Sprague Dawley rats were given a moderate grade spinal cord contusion injury (SCI). The rats were injected with OTL38 or simultaneously with OTL38 and Fol-Glu on day 7 after injury. On day 8, the spinal cords were removed and imaged for NIR signal.
NR signal is represented by green and red colors, with red showing areas of high intensity. Blue arrows point to the epicenter of the SCI. “R” indicates the rostral portion of the spinal cord.

[3] = test system: eye; conditions: mouse, in vivo
Experimental: Given the extensive time that OTL38 remained in the eyes, signal in the presence of the folate competitor folate-glucosamine (Fol-Glc) was tested. Healthy, wild-type mice were injected with 10 nmols OTL38. Some mice were subsequently injected with Fol-Glc. All mice were subsequently sacrificed and examined in comparison to noninjected mice.

[4] = Persistence of folate conjugate: NIR signal in blood and CSF over time; type: in vivo, Sprague Dawley rats; conditions: rats
Experimental: Adult male Sprague Dawley rats were injected with OTL38. Blood and cerebrospinal fluid (CSF) were then extracted at the same time at various timepoints and imaged. […] The data also indicate that the exposure of the CNS to the payload is extended over time.
FIG. 9 is a graph of mean fluorescent intensity vs. time for CSF and blood. n=1-4 rats/timepoint.

[5] = test system: rats with cortex laceration of the left hemisphere; assay: FRES uptake in cortex laceration: NIR imaging of the cortex; type: in vivo, Sprague Dawley rats; conditions: injected seven days after cortex laceration, brains removed next day
Experimental: Adult male Sprague Dawley rats were given brain injuries by cortex laceration of the left hemisphere using a small ophthalmic knife. Seven days after injury, the rats were injected with OTL38. The brains were removed the next day, and the cortexes were imaged.
FIGS. 13A-13B show a precise surface laceration injury in the cortex of the left hemisphere of the brain. FIG. 13A is a cartoon indicating the area of injury (blue circle) and the area imaged (blue rectangle). […] The right hemisphere cortex served as an internal control (uninjured, no signal).
Choroid plexus cells in the ventricles produce CSF and are the site of FRES release into the subarachnoid space, where the brain and spinal cord continue to be perfused. The 4th ventricle and lateral recess contain choroid plexus cells and are the site of outflow for newly produced CSF. The intense signal below the cerebellum (blue arrow) is a result of concentrated choroid plexus cells and FRES/new CSF production and entry for CNS perfusion. […] The opposite hemisphere represents an internal control with no areas of enhanced signal.

[6] = test system: eye; conditions: rat, in vivo
Experimental: An adult male Sprague Dawley rat was intravenously injected with OTL38 and imaged 24 hours later. […] Red and green colors indicate signal from the dye, with red showing the most intense regions.

[7] = target: T1, folate receptors on cells of the choroid plexus (Mus musculus, UniProt P35846); assay: Transport of folate conjugates across blood-cerebrospinal fluid barrier: NIR imaging of brain/choroid plexus; type: in vivo, B6 male mice
T1 construct: the uptake of OTL38 is mediated by folate receptors on cells of the choroid plexus; from tissue; host or cells: choroid plexus of live B6 male mice (in vivo, ex vivo NIR imaging of brain)
Excerpt: Corresponding ventral side of the spinal cords are shown to the left of each brain. […] Green fluorescence indicates OTL38 signal. […] In the middle column (OTL38+Fol-Glu, n=4) minimal uptake is observed. In the far-right corner, Control (non-injected, n=1), no signal is observed. FIG. 9 is a graph of mean fluorescent intensity vs. time for CSF and blood. n=1-4 rats/timepoint.
B6 male mice were given an intravenous tail injection of a folate-fluorescent near infrared (NIR) dye conjugate (i.e., OTL38) and imaged. […] Corresponding ventral side of the spinal cords are shown to the left of each brain. […] Green fluorescence indicates OTL38 signal. […] In the middle column (OTL38+Fol-Glu, n=4) minimal uptake is observed. In the far right corner, Control (non-injected, n=1), no signal is observed.

[8] = test system: rats with controlled cortical impact (CCI) injuries; assay: FRES uptake in controlled cortical impact (CCI) injury: NIR imaging of the cortex surface; type: in vivo, Sprague Dawley rats; conditions: intravenous injection ten days after CCI injury, imaged next day
Excerpt: Adult male Sprague Dawley rats were given moderate grade controlled cortical impact (CCI) injuries. This injury represents concussion of the brain cortex, which is a more common injury in humans than laceration of the brain cortex. The impactor was circular and 6 mm in diameter. The rats were intravenously injected with OTL38 ten days after injury. The next day the rats were sacrificed, and the surfaces of the cortexes were imaged. […] The yellow arrow points to signal on the dorsal surface of the spinal cord.

T1 sequence (P35846 25-232): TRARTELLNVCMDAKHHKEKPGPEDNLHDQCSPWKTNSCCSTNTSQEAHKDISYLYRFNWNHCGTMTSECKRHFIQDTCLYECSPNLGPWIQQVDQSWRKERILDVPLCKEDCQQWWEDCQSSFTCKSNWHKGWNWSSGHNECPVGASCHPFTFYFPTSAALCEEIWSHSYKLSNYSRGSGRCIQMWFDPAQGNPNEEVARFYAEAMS

Question: With `CC1(C)C(/C=C/C2=C(Cl)C(=C/C=C3/N(CCCCS(=O)(=O)[O-])c4ccc(S(=O)(=O)[O-])cc4C3(C)C)/CCC2)=[N+](CCCCS(=O)(=O)[O-])c2ccc(S(=O)(=O)[O-])cc21.[Na+].[Na+].[Na+]` [unconjugated NIR dye] as the compound, how does the “NIR signal in the spinal cords” value [1] read?
Answer: lack of signal

Question: With OTL38 as the compound, how does the “NIR signal in the spinal cords, injected simultaneously with Fol-Glu” value ([2]; OTL38+Fol-Glu on day 7 after injury, imaged day 8) read?
Answer: lack of signal

Question: And the “NIR signal in the spinal cords” value ([2]; injected day 7 after injury, spinal cords imaged day 8)?
Answer: Strong signal

Question: And the “OTL38 signal (mean fluorescence intensity) in eyes after administration of Fol-Glc” value [3]?
Answer: reduced

Question: And the “NIR signal in the blood relative to that of the CSF” value ([4]; four hours post-injection and all subsequent timepoints)?
Answer: dropped and remained lower than that of the CSF

Question: And the “NIR signal in the blood relative to that of the CSF” value ([4]; two hours post-injection, blood exceeded CSF)?
Answer: nearly two-fold

Question: What about the “Mean fluorescence intensity, epicenter vs rostral region” value ([1]; SCI rat, transverse spinal cord sections, students t-test **p<0.01) of the same compound?
Answer: significant increase in signal in the epicenter as compared to the rostral region

Question: What about the “NIR signal in the spinal cords” value [1] of the same compound?
Answer: Signal was observed

Question: And the “NIR signal around the choroid plexus” value [5]?
Answer: Increased signal around the choroid plexus

Question: What about the “NIR signal at the cortex injury” value ([5]; uninjured right hemisphere no signal) of the same compound?
Answer: enhanced signal around the injury area

Question: What about the “Uptake in the retina, eye slices” value [6] of the same compound?
Answer: strong OTL38 uptake in the area of the retina

Question: And the “NIR signal at the eye, live imaging” value ([6]; iv)?
Answer: intense red signal at the eye

Question: What about the “NIR signal in the choroid plexus, co-injected with Fol-Glu” value ([7]; mice co-injected with OTL38 and folate-glucosamine conjugate (Fol-Glu), competitor for folate receptors) of the same compound?
Answer: noticeable reduction in signal

Question: What about the “NIR signal in the choroid plexus” value ([7]; mice, intravenous tail injection, 24 hours after injection) of the same compound?
Answer: Strong signal

Question: And the “NIR signal at the CCI injury” value [8]?
Answer: positive targeting of the 6 mm circular injury
